± gives the uncertainty stated by the source.
B1: POU domain, class 3, transcription factor 2, residues 262 to 338; numbered along this chain, P20265 (parent)
chain: EDTPTSDDLEQFAKQFKQRRIKLGFTQADVGLALGTLYGNVFSQTTICRFEALQLSFKNMCKLKPLLNKWLEEADSS

Variants of: B1
Assay: abundance fitness (aPCA) (normalised: wild type 0, dead -1); higher = more abundant; growth selection in yeast, the domain comes from the species named
Conditions: Homo sapiens

| Variant | abundance fitness |
| --- | --- |
| EDTPTSDDLEQFAKQFKQRRIKLGFTQADVGLALGTLYGNVFSQTTICRFEALQLSFKNMCKLKPLLRKWLEEADSS | -0.004 ± 0.074 |
| EDTPTSDDLEQFAKQFKQRRIKLGFTQADVGLALGTLYGNVFSQTTICRFEALQLSFKNMCKLKPLLQKWLEEADSS | -0.313 ± 0.43 |
| EDTPTSDDLEQFAKQFKQRRIKLGFTQADVGLALGTLYGNVFSQTTICRFEALQLSFKNMCKLKPLLNKFLEEADSS | -0.111 ± 0.068 |
| EDTPTSDDLEQFAKQFKQRRIKLGFTQADVGLALGTLYGNVFSQTTICRFEALQLSFKNMCKLKPLLNKKLEEADSS | -0.814 ± 0.12 |
| EDTPTSDDLEQFAKQFKQRRIKLGFTQADVGLALGTLYGNVFSQTTICRFEALQLSFKNMCKLKPLLNKGLEEADSS | -0.754 ± 0.041 |
| EDTPTSDDLEQFAKQFKQRRIKLGFTQADVGLALGTLYGNVFSQTTICRFEALQLSFKNMCKLKPLLNKMLEEADSS | -0.669 ± 0.084 |
| EDTPTSDDLEQFAKQFKQRRIKLGFTQADVGLALGTLYGNVFSQTTICRFEALQLSFKNMCKLKPLLNKNLEEADSS | -0.358 ± 0.18 |
| EDTPTSDDLEQFAKQFKQRRIKLGFTQADVGLALGTLYGNVFSQTTICRFEALQLSFKNMCKLKPLLNKQLEEADSS | -0.728 ± 0.088 |
| EDTPTSDDLEQFAKQFKQRRIKLGFTQADVGLALGTLYGNVFSQTTICRFEALQLSFKNMCKLKPLLNKELEEADSS | -0.742 ± 0.077 |
| EDTPTSDDLEQFAKQFKQRRIKLGFTQADVGLALGTLYGNVFSQTTICRFEALQLSFKNMCKLKPLLNKHLEEADSS | -0.943 ± 0.21 |
| EDTPTSDDLEQFAKQFKQRRIKLGFTQADVGLALGTLYGNVFSQTTICRFEALQLSFKNMCKLKPLLNKRLEEADSS | -0.649 ± 0.039 |
| EDTPTSDDLEQFAKQFKQRRIKLGFTQADVGLALGTLYGNVFSQTTICRFEALQLSFKNMCKLKPLLNKSLEEADSS | -0.742 ± 0.065 |
| EDTPTSDDLEQFAKQFKQRRIKLGFTQADVGLALGTLYGNVFSQTTICRFEALQLSFKNMCKLKPLLNKTLEEADSS | -1.06 ± 0.18 |
| EDTPTSDDLEQFAKQFKQRRIKLGFTQADVGLALGTLYGNVFSQTTICRFEALQLSFKNMCKLKPLLNKPLEEADSS | -0.853 ± 0.11 |
| EDTPTSDDLEQFAKQFKQRRIKLGFTQADVGLALGTLYGNVFSQTTICRFEALQLSFKNMCKLKPLLNKALEEADSS | -0.519 ± 0.048 |
| EDTPTSDDLEQFAKQFKQRRIKLGFTQADVGLALGTLYGNVFSQTTICRFEALQLSFKNMCKLKPLLNKILEEADSS | -0.64 ± 0.15 |
| EDTPTSDDLEQFAKQFKQRRIKLGFTQADVGLALGTLYGNVFSQTTICRFEALQLSFKNMCKLKPLLNKYLEEADSS | -0.381 ± 0.099 |
| EDTPTSDDLEQFAKQFKQRRIKLGFTQADVGLALGTLYGNVFSQTTICRFEALQLSFKNMCKLKPLLNKDLEEADSS | -0.431 ± 0.15 |

| Variant | abundance fitness |
| --- | --- |
| EDTPTSDDLEQFAKQFKQRRIKLGFTQADVGLALGTLYGNVFSQTTICRFEALQLSFKNMCKLKPLLNKVLEEADSS | -0.411 ± 0.042 |
| EDTPTSDDLEQFAKQFKQRRIKLGFTQADVGLALGTLYGNVFSQTTICRFEALQLSFKNMCKLKPLLNKCLEEADSS | -0.698 ± 0.11 |
| EDTPTSDDLEQFAKQFKQRRIKLGFTQADVGLALGTLYGNVFSQTTICRFEALQLSFKNMCKLKPLLNKLLEEADSS | -0.502 ± 0.043 |
| EDTPTSDDLEQFAKQFKQRRIKLGFTQADVGLALGTLYGNVFSQTTICRFEALQLSFKNMCKLKPLLNYWLEEADSS | 0.138 ± 0.16 |
| EDTPTSDDLEQFAKQFKQRRIKLGFTQADVGLALGTLYGNVFSQTTICRFEALQLSFKNMCKLKPLLNTWLEEADSS | -0.02 ± 0.08 |
| EDTPTSDDLEQFAKQFKQRRIKLGFTQADVGLALGTLYGNVFSQTTICRFEALQLSFKNMCKLKPLLNCWLEEADSS | -0.449 ± 0.16 |
| EDTPTSDDLEQFAKQFKQRRIKLGFTQADVGLALGTLYGNVFSQTTICRFEALQLSFKNMCKLKPLLNEWLEEADSS | -0.231 ± 0.1 |
| EDTPTSDDLEQFAKQFKQRRIKLGFTQADVGLALGTLYGNVFSQTTICRFEALQLSFKNMCKLKPLLNRWLEEADSS | 0.019 ± 0.056 |
| EDTPTSDDLEQFAKQFKQRRIKLGFTQADVGLALGTLYGNVFSQTTICRFEALQLSFKNMCKLKPLLNFWLEEADSS | -0.234 ± 0.14 |
| EDTPTSDDLEQFAKQFKQRRIKLGFTQADVGLALGTLYGNVFSQTTICRFEALQLSFKNMCKLKPLLNLWLEEADSS | -0.144 ± 0.092 |
| EDTPTSDDLEQFAKQFKQRRIKLGFTQADVGLALGTLYGNVFSQTTICRFEALQLSFKNMCKLKPLLNNWLEEADSS | -0.298 ± 0.25 |
| EDTPTSDDLEQFAKQFKQRRIKLGFTQADVGLALGTLYGNVFSQTTICRFEALQLSFKNMCKLKPLLNMWLEEADSS | 0.112 ± 0.14 |
| EDTPTSDDLEQFAKQFKQRRIKLGFTQADVGLALGTLYGNVFSQTTICRFEALQLSFKNMCKLKPLLNSWLEEADSS | -0.146 ± 0.1 |
| EDTPTSDDLEQFAKQFKQRRIKLGFTQADVGLALGTLYGNVFSQTTICRFEALQLSFKNMCKLKPLLNWWLEEADSS | -0.288 ± 0.16 |
| EDTPTSDDLEQFAKQFKQRRIKLGFTQADVGLALGTLYGNVFSQTTICRFEALQLSFKNMCKLKPLLNDWLEEADSS | -0.264 ± 0.14 |
| EDTPTSDDLEQFAKQFKQRRIKLGFTQADVGLALGTLYGNVFSQTTICRFEALQLSFKNMCKLKPLLNVWLEEADSS | -0.273 ± 0.084 |
| EDTPTSDDLEQFAKQFKQRRIKLGFTQADVGLALGTLYGNVFSQTTICRFEALQLSFKNMCKLKPLLNQWLEEADSS | -0.003 ± 0.087 |
| EDTPTSDDLEQFAKQFKQRRIKLGFTQADVGLALGTLYGNVFSQTTICRFEALQLSFKNMCKLKPLLNAWLEEADSS | -0.094 ± 0.07 |

Source: the Human Domainome abundance scans (Beltran et al. 2025)
